Molecular target: firefly luciferase (firefly) [luciferase: P08659]
Assay: cell-based or functional assay

Chain of firefly luciferase (firefly) [luciferase: P08659] (P08659 whole entry): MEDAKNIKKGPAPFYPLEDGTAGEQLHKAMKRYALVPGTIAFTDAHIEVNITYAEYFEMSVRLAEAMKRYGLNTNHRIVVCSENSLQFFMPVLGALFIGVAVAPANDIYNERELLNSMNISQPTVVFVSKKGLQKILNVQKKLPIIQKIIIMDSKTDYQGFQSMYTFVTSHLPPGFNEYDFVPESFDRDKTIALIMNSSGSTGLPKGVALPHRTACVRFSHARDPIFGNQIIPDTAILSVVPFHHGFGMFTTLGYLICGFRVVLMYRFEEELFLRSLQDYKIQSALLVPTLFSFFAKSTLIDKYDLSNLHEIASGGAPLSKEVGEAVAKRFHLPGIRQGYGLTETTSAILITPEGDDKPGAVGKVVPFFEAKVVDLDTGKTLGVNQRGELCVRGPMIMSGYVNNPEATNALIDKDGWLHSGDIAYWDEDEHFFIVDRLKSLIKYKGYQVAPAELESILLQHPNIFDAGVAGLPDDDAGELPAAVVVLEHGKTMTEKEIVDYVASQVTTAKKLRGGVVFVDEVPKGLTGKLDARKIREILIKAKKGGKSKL

In the case of “grp170 as used in Examples 6 and 8 (source and species not stated)”, the percent protein aggregation (light scattering, OD 320 nm, 43° C 30 min; luciferase heated alone = 100%) is reported as 40%.

“hsp110 as used in Examples 6, 8 and 10 (source and species not stated)” was tested, and the percent protein aggregation (light scattering, OD 320 nm, 43° C 30 min; luciferase heated alone = 100%) was 20%.

— patent publication US20080103095A1
